{"source": "paper PMC3704941", "key": {"[1]": {"target": "truncated form of the monomeric type IV pilin from P. aeruginosa strain K122-4 [pilA (Δ1-28); ΔK122] (Pseudomonas aeruginosa strain K122-4)", "experiment": "SEC-MALS; silica-based column, 10 nm pore size, 10 mM Tris pH 7.4; 1 mg·mL^-1 ΔK122 incubated with MPD for 72 hours; relative peak areas"}, "[2]": {"target": "truncated form of the monomeric type IV pilin from P. aeruginosa strain K122-4 [pilA (Δ1-28); ΔK122] (Pseudomonas aeruginosa strain K122-4)", "experiment": "SEC-MALS; silica-based column, 10 nm pore size, 10 mM Tris pH 7.4; 1 mg·mL^-1 ΔK122 incubated with MPD for 24 hours; Peaks 2-4"}, "[3]": {"target": "truncated form of the monomeric type IV pilin from P. aeruginosa strain K122-4 [pilA (Δ1-28); ΔK122] (Pseudomonas aeruginosa strain K122-4)", "experiment": "SEC-MALS; silica-based column, 10 nm pore size, 10 mM Tris pH 7.4; 1 mg·mL^-1 ΔK122 before incubation with MPD; monomer to dimer"}, "[4]": {"target": "truncated form of the monomeric type IV pilin from P. aeruginosa strain K122-4 [pilA (Δ1-28); ΔK122] (Pseudomonas aeruginosa strain K122-4)", "experiment": "SEC-MALS; MALS of the SEC-separated Peak 3/4 aliquot of 15 mg·mL^-1 ΔK122 after 24 hours incubation with MPD; signal overload at the detector noted"}, "[5]": {"target": "truncated form of the monomeric type IV pilin from P. aeruginosa strain K122-4 [pilA (Δ1-28); ΔK122] (Pseudomonas aeruginosa strain K122-4)", "experiment": "SEC-MALS; silica-based column, 10 nm pore size, 10 mM Tris pH 7.4; 1 mg·mL^-1 ΔK122 incubated with MPD for 3 hours; relative peak areas"}}, "note": "Several values for one entry are separate records, joined by “and”; a condition that tells them apart may be missing. Equal values may be shown once."}
{"substance": "truncated form of the monomeric type IV pilin from P. aeruginosa strain K122-4 [pilA (Δ1-28); ΔK122] (domain or fragment)", "values": [{"measurement": "percent of total protein in the higher molecular weight peaks (72 hours with MPD)", "setting": "[1]", "result": 90, "unit": "%"}, {"measurement": "stoichiometry N", "setting": "[2]", "result": "14 and 20 and 40"}, {"measurement": "percent of total species in the higher molecular weight peaks (before MPD)", "setting": "[3]", "result": 17.5, "unit": "%"}, {"measurement": "stoichiometry N", "setting": "[3]", "result": 2}, {"measurement": "stoichiometry N", "setting": "[4]", "result": 4040}, {"measurement": "percent of total species in the higher molecular weight peaks (3 hours with MPD)", "setting": "[5]", "result": 55.1, "unit": "%"}]}
